In patent publication US20120156130A1 (published 2012):

B1: U1-49, anti-HER3 antibody (antibody, V domains shown)
VH: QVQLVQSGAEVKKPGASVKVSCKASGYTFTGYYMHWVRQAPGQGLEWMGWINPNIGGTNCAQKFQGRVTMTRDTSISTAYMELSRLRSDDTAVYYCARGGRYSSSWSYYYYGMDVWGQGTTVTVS
VL: DILMTQTPLSLSVTPGQPASISCKSSQSLLLSDGGTYLYWYLQKPGQPPQLLIYEVSNRFSGVPDRFSGSGSGTDFTLKISRVEAEDVGVYYCMQSMQLPITFGQGTRLEIK
B2: U1-53, anti-HER3 antibody (antibody, V domains shown)
VH: EVQLVESGGGLVQPGGSLRLSCAASGFTFSIYSMNWVRQAPGKGLEWVSYISSSSSTIYYADSVKGRFTISRDNAKNSLYLQMNSLRDEDTAVYYCARDRGDFDAFDIWGQGTMVTVSS
VL: DIQMTQSPSSLSASVGDRVTITCQASQDITNYLNWYQQKPGKAPKLLIYDASNLETGVPSRFSGSGSGTDFTFTISSLQPEDIATYNCQQCENFPITFGQGTRLEIK
B3: U1-59, fully human anti-HER3 monoclonal antibody (antibody, V domains shown)
VH: QVQLQQWGAGLLKPSETLSLTCAVYGGSFSGYYWSWIRQPPGKGLEWIGEINHSGSTNYNPSLKSRVTISVETSKNQFSLKLSSVTAADTAVYYCARDKWTWYFDLWGRGTLVTVSS
VL: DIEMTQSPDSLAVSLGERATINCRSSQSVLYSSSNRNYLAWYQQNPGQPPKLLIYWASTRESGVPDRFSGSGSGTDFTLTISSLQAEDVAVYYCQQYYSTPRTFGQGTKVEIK

What follows are binders tested against HER3 on DU-145 and PC-3 prostate cancer cells (UniProt P21860 20-1342, limits assumed) (assay: cell-based or functional assay).
Chain of HER3 on DU-145 and PC-3 prostate cancer cells (P21860 20-1342 limits assumed): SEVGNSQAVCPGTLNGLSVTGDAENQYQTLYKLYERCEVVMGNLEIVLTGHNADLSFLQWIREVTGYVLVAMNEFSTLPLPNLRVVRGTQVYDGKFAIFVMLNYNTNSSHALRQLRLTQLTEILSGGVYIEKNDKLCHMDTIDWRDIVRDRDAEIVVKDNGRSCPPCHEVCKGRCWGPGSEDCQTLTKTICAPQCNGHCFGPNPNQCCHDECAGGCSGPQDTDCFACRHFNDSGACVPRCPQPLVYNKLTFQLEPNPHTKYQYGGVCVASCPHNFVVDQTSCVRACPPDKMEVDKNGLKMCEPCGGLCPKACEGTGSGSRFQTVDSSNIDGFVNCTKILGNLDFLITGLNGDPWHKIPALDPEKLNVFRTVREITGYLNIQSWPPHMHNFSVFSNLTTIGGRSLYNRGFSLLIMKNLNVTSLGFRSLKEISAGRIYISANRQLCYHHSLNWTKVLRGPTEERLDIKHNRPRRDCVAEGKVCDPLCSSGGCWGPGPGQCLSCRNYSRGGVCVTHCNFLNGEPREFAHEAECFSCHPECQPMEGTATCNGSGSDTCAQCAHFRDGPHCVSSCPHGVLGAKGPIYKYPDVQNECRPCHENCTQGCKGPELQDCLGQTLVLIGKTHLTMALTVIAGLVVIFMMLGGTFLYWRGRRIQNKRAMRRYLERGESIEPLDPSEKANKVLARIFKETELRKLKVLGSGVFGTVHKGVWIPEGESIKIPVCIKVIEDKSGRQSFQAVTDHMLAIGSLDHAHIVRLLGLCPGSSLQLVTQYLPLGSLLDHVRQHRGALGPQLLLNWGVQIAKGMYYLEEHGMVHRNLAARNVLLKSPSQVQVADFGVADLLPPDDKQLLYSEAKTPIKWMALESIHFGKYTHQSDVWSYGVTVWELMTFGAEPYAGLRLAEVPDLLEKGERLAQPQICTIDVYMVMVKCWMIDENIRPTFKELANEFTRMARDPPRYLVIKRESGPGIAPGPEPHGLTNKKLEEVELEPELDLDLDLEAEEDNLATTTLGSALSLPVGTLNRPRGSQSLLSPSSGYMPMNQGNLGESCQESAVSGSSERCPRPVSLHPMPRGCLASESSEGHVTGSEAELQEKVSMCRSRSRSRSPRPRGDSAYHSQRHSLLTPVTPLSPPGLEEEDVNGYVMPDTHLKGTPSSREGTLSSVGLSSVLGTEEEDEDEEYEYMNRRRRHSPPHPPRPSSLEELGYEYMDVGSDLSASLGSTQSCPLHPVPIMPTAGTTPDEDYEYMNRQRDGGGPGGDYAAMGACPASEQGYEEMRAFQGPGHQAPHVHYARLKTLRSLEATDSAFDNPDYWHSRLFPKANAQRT

Row | Binder | inhibition in colony formation (anchorage independent growth of PC-3 cells, soft agar) [%]
1 | B1 | 52
2 | B2 | 78
3 | B3 | 78
